From patent US20130122000A1 (TRELLIS BIOSCIENCE, published 2013)

B1: 1G4 mAb (antibody, V domains shown)
VH: GASVKMSCKASGYTFTDYVISWVKQRTGQGLEWIGEIYPGSGRYYHNEKFKGKATLTADKSSNTAYIQLSSLTSEDSAVYFCTRSLQRLRYFDVWGAGTTVTVSS
VL: QSPATLSVTPGDRVSLSCRASQSISDYLHWYQQKSHESPRLLIKYGSQSISGIPSRFSGSGSGTDFTLSISSVETEDFGMYFCQQSNSWPLTFGAGTKLELKR
notes: Murine monoclonal antibody from a hybridoma; also called IG4; antibody 1G4
B2: heregulin (ligand, UniProt Q02297-6 177-241, looked up)
chain: SHLVKCAEKEKTFCVNGGECFMVKDLSNPSRYLCKCPNEFTGDRCQNYVMASFYKHLGIEFMEAE
notes: also called HRG

Columns and labels:
[1] = target: HER3 on tumor cells (MCF-7, MB468) (UniProt P21860 20-1342, limits assumed); experiment: cell-based or functional assay
Sequence of HER3 on tumor cells (MCF-7, MB468) (P21860 20-1342 limits assumed): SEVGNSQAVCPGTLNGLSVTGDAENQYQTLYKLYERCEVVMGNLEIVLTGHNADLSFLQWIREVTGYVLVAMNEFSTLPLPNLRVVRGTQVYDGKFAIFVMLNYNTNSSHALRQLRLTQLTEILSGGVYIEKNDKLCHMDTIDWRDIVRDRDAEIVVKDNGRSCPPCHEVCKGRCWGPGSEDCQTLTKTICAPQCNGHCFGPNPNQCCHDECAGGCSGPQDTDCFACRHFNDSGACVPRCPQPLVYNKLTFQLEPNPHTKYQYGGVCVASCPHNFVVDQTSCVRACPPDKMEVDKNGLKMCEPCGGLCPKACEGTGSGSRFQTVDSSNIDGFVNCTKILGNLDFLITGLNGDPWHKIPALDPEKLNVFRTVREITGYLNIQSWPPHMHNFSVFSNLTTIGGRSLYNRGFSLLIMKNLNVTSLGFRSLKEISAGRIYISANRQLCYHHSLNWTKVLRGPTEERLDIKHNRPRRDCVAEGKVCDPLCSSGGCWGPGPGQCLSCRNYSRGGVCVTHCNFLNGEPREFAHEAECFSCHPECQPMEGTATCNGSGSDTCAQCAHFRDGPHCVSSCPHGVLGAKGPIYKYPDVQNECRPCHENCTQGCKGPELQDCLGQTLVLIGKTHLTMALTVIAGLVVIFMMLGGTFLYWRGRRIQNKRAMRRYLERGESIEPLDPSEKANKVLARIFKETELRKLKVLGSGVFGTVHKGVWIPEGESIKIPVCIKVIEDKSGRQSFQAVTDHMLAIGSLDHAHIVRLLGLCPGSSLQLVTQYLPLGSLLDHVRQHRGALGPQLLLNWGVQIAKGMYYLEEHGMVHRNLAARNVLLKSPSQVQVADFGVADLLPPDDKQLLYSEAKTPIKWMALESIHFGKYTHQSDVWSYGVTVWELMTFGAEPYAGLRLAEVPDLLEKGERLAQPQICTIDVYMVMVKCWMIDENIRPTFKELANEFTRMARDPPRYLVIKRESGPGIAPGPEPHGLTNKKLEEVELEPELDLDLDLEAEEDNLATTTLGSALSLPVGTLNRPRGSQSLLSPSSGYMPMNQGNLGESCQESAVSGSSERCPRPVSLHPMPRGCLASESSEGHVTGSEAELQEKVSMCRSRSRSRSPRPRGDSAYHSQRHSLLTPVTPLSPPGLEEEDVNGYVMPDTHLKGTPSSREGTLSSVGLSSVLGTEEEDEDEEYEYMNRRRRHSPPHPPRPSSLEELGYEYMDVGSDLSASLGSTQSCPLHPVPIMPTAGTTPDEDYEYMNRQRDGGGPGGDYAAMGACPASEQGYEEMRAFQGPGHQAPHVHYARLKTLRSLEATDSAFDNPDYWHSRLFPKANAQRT

[2] = target: T1, HER3 extracellular domain (ECD) (UniProt P21860 20-643); experiment: FortéBio biosensor (BLI), HER3 ECD on amine-reactive surface, antibody in solution from 67 nM, 3-fold series; average (Stdev 2,660)
T1 construct: extracellular domain; Coupled to an amine-reactive biosensor surface at 10-15 ug/ml; also called HER3 ECD; ErbB3
T1 sequence (P21860 20-643 limits assumed): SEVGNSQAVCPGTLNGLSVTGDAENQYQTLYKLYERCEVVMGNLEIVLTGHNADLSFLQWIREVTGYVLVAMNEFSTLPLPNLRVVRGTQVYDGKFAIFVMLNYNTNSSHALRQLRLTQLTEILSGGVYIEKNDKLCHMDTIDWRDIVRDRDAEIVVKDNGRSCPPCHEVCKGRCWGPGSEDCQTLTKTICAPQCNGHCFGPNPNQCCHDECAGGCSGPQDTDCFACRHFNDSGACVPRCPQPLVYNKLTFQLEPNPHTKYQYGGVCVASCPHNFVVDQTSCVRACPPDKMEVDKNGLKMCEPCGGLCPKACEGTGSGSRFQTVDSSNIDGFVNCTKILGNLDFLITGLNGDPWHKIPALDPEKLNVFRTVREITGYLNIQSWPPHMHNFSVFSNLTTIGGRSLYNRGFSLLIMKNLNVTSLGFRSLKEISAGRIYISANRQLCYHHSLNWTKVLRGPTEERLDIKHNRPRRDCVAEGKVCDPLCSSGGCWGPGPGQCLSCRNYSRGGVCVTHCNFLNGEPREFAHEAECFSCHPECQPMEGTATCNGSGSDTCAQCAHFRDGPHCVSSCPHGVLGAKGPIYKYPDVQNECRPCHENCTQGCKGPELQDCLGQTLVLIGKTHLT
Method: Of these, six of these murine antibodies were assayed quantitatively for their binding affinities to HER3 ECD according to the commercially available FortéBio® method. In this method, ECD at 10-15 μg/ml was captured onto an amine-reactive surface in 10 mM MES, pH 6.0 at 25° C. Binding capacity is tested by treating the surface with unlabeled antibody. As unlabeled antibody accumulates on the surface, the optical characteristics of the surface are changed, thus allowing measurement of mass accumulation without requiring labeling. This is a modification of the Biacore™ style analysis. The antibodies were tested at 67 nM as the highest concentration and diluted in a three-fold dilution series. Response data for the various concentrations were individually and globally fitted to determine the binding affinities.

HER3:heregulin complex = target: T2, HER3:heregulin complex (UniProt P21860 20-643; Q02297 177-241, limits assumed); experiment: FortéBio biosensor (BLI), HER3 ECD on amine surface loaded with heregulin at 10 ug/ml, antibody from 67 nM, 3-fold series; average (Stdev 113)
T2 construct: Non-covalent receptor-ligand complex, formed on the biosensor by adding heregulin to immobilised HER3 ECD; also called heregulin active complex with HER3; complex of HER3 ECD with heregulin
T2 sequence (P21860 20-643 limits assumed, one chain of several): as the sequence (P21860 20-643 limits assumed) above
Method: The binding assay was repeated for two of the antibodies, 1G4 and 14B10 using the same FortéBio® method. HER3 ECD at 10-15 μg/ml was again captured onto the amine surface in the same buffer. Heregulin at 10 μg/ml was added to form the HER3:heregulin complex on the surface and the antibodies tested at 67 nM once again using three-fold dilution series and the data were fitted to determine binding constants.

[3] = target: T1, HER3 extracellular domain (ECD); experiment: FortéBio biosensor (BLI), HER3 ECD on amine-reactive surface; average (Stdev 111,000)

Row | Binder | IC50, inhibition of HER3 tyrosine phosphorylation in MCF-7 cells stimulated with heregulin [1] | Kd [2] | Kd (HER3:heregulin complex) | Kd [3]
1 | B1 | ~10 ng/mL | 2.81 nM | 0.327 nM | 
2 | B2 |  |  |  | 165 nM
